Measured values as given in patent US6428965 (Johns Hopkins, dated 2002).

T1: myc-tagged soluble neuropilin extracellular domain (myc-neuropilin^ex) (rat, UniProt Q9QWJ9 22-855)
T1 construct: Expressed in COS cells and used as culture medium
T1 sequence: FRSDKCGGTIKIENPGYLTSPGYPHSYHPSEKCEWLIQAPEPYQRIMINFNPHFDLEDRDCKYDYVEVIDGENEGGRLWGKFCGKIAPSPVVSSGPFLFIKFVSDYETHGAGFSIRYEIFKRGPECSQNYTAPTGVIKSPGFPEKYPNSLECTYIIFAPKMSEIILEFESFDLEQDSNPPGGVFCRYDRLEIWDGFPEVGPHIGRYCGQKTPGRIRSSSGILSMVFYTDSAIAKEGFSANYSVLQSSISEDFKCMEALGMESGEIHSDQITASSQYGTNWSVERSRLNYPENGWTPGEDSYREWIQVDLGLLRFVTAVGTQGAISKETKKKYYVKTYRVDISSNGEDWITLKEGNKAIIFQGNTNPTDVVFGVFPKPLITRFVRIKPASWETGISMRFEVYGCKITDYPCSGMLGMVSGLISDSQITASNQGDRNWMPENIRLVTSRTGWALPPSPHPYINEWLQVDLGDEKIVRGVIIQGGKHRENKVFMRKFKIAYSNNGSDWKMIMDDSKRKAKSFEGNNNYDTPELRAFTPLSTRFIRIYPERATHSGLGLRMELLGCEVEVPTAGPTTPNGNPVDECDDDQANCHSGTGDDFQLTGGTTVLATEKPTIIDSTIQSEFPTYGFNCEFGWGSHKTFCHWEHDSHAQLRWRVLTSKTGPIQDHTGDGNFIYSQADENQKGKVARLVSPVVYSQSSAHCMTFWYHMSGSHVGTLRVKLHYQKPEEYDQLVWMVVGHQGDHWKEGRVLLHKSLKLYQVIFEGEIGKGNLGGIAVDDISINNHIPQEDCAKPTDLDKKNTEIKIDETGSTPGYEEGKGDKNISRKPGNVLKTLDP


Assays:
[1] = biological target: Sema-AP binding sites / Sema III receptor(s) on NGF-dependent rat E14 DRG sensory neurons; experiment: whole cell binding, Scatchard analysis, dissociated rat E14 DRG neurons
[2] = biological target: T2, rat neuropilin (neuropilin-1), full length (rat, UniProt Q9QWJ9 22-922); experiment: whole cell binding, Scatchard analysis, COS cells transiently expressing neuropilin
T2 construct: Expressed transiently on COS cells from pMT21-neuropilin
Experimental: Because Coll-1 elicits biological effects at sub-nanomolar concentrations (Luo et al., 1993), we predicted that a bona fide Sema III receptor should bind to Sema III with high affinity. To determine the affinity of Sema-AP for neuropilin, neuropilin was transiently expressed in COS cells, and whole cell binding analyses were performed two days later (FIG. 3A). For comparison, the affinity of Sema-AP for its receptor(s) present on NGF-dependent sensory neurons prepared from dissociated E14 DRG was also determined (FIG. 3B). […] These binding affinities are similar to those recently described for netrins and their receptors (Keino-Masu et al., 1996; Leonardo et al., 1997) and Eph receptors and their ligands (Cheng and Flanagan, 1994; Monschau et al., 1997), and they are consistent with a role for neuropilin in Sema III-mediated growth cone collapse and in repulsive guidance of DRG neurons during neurodevelopment.
COS cells were transfected with 2 μg of pMT21-neuropilin, an expression vector encoding neuropilin, or either no DNA or the empty pMT21 expression vector using Lipofectamine (BRL), recovered in growth media, and then grown for 48 hours prior to binding analysis. Dissociated DRG neurons were cultured from E14 DRGs. […] Quantitiative cell surface binding was done essentially as described (Flanagan and Leder, 1990).

[3] = biological target: T2, rat neuropilin (neuropilin-1), full …; experiment: AP staining of transfected COS cells
Experimental: FIGS. 1A to 1F. Sema-AP binds to neuropilin. COS cells were transfected with an expression vector encoding neuropilin (FIGS. 1A–1C) or the empty vector (FIG. 1D). After two days, cells were incubated with Sema-AP (FIG. 1A) or SEAP (FIG. 1B) and then processed for alkaline phosphatase activity, or cells were fixed and subjected to immunocytochemistry using anti-neuropilin IgG (FIGS. 1C and 1D). No neuropilin immunoreactivity was detected when COS cells expressing neuropilin were incubated with pre-immune IgG. (FIG. 1E) Anti-neuropilin immunoblot analysis of whole cell extracts prepared from COS cells that were transfected with the empty expression vector (lane 1) or an expression vector encoding neuropilin (lane 2). (FIG. 1F) Sema-AP binds directly to the extracellular domain of neuropilin. Either Sema-AP or SEAP was incubated with soluble myc-tagged neuropilin extracellular domain (myc-neuropilin^ex). Then, myc-neuropilin^ex was immunoprecipitated with an antibody directed against the myc epitope, and alkaline phosphatase activity in the immune complex was determined as described in the Examples. AP activity was measured as described in the Examples and is reported as OD$405$/second. Shown are the means +/− SEM of three independent experiments. Scale bar=25 μm.

[4] = biological target: T1, myc-tagged soluble neuropilin …; experiment: co-immunoprecipitation with anti-myc antibody, AP activity
Experimental: Therefore, we next asked whether Sema-AP binds directly to neuropilin in a co-immunoprecipitation assay. For these experiments, an N-terminal myc-tagged neuropilin protein lacking the neuropilin transmembrane and intracellular domains (myc-neuropilin^ex) was used to assess whether the extracellular domain of neuropilin can directly interact with Sema III. Myc-neuropilin^ex was expressed in COS cells and the tissue culture medium was then incubated with either Sema-AP or SEAP alone. Upon precipitation of the myc-neuropilin^ex with a monoclonal antibody directed against the myc epitope, co-precipitation of Sema-AP was determined by the presence of AP activity in the immune complex (FIG. 1F). In contrast, no AP activity above background levels was detected in anti-myc immune complexes collected from samples in which myc-neuropilin was incubated with SEAP alone.
Co-precipitation of Sema-AP and the Secreted, Extracellular Domain of Neuropilin COS cell supernatant containing myc-neuropilin^ex, 293 EBNA cell supernatant containing SEAP, or 293 EBNA cell supernatant containing Sema-AP was filter-sterilized and concentrated. Samples containing equal amounts of control supernatants or supernatants containing myc-neuropilin^ex were mixed with samples containing either Sema-AP or SEAP (equal amounts of AP activity). These mixtures were incubated at room temperature for 2 hours. […]

binding sites per cell (binding sites per cell) [1]	Kd [2] [nM]	binding result [3]	binding result [4]	Binder
20000	~1.5	–	–	H-Sema III-alkaline phosphatase fusion protein (Sema-AP) (ligand, human, UniProt Q14563 21-771, looked up, Made in 293 EBNA cells from pCEP4 and used as supernatant; also called Sema III-AP; Sema III-secreted placental alkaline phosphatase fusion protein; not shown: secreted placental alkaline phosphatase of vector pAPtag-1 (Flanagan and Leder, 1990), C-terminal to Sema III; limits an) NYQNGKNNVPRLKLSYKEMLESNNVITFNGLANSSSYHTFLLDEERSRLYVGAKDHIFSFDLVNIKDFQKIVWPVSYTRRDECKWAGKDILKECANFIKVLKAYNQTHLYACGTGAFHPICTYIEIGHHPEDNIFKLENSHFENGRGKSPYDPKLLTASLLIDGELYSGTAADFMGRDFAIFRTLGHHHPIRTEQHDSRWLNDPKFISAHLISESDNPEDDKVYFFFRENAIDGEHSGKATHARIGQICKNDFGGHRSLVNKWTTFLKARLICSVPGPNGIDTHFDELQDVFLMNFKDPKNPVVYGVFTTSSNIFKGSAVCMYSMSDVRRVFLGPYAHRDGPNYQWVPYQGRVPYPRPGTCPSKTFGGFDSTKDLPDDVITFARSHPAMYNPVFPMNNRPIVIKTDVNYQFTQIVVDRVDAEDGQYDVMFIGTDVGTVLKVVSIPKETWYDLEEVLLEEMTVFREPTAISAMELSTKQQQLYIGSTAGVAQLPLHRCDIYGKACAECCLARDPYCAWDGSACSRYFPTAKRRTRRQDIRNGDPLTHCSDLHHDNHHGHSPEERIIYGVENSSTFLECSPKSQRALVYWQFQRRNEERKEEIRVDDHIIRTDQGLLLRSLQQKDSGNYLCHAVEHGFIQTLLKVTLEVIDTEHLEELLHKDDDGDGSKTKEMSNSMTPSQKVWYRDFMQLINHPNLNTMDEFCEQVWKRDRKQRRQRPGHTPGNSNKWKHLQENKKGRNRRTHEFERAPRSV
–	–	no binding	no binding	secreted placental alkaline phosphatase (SEAP) (enzyme, UniProt P05187 23-511, looked up, Control for the AP part of Sema-AP) IIPVEEENPDFWNREAAEALGAAKKLQPAQTAAKNLIIFLGDGMGVSTVTAARILKGQKKDKLGPEIPLAMDRFPYVALSKTYNVDKHVPDSGATATAYLCGVKGNFQTIGLSAAARFNQCNTTRGNEVISVMNRAKKAGKSVGVVTTTRVQHASPAGTYAHTVNRNWYSDADVPASARQEGCQDIATQLISNMDIDVILGGGRKYMFRMGTPDPEYPDDYSQGGTRLDGKNLVQEWLAKRQGARYVWNRTELMQASLDPSVTHLMGLFEPGDMKYEIHRDSTLDPSLMEMTEAALRLLSRNPRGFFLFVEGGRIDHGHHESRAYRALTETIMFDDAIERAGQLTSEEDTLSLVTADHSHVFSFGGYPLRGSSIFGLAPGKARDRKAYTVLLYGNGPGYVLKDGARPDVTESESGSPEYRQQSAVPLDEETHAGEDVAVFARGPQAHLVHGVQEQTFIAHVMAFAACLEPYTACDLAPPAGTTDAAHPG
